Experimental data published in patent publication US20030078221, “High affinity nucleic acid ligands of complement system proteins” (Gilead Sciences, Inc., published 2003).

B1: C6 (ssRNA)
RNA: GGGAGGACGAUGCGGUCUCAUGCGUCGAGUGUGAGUUUACCUUCGUCAGACGACUCGCCCGA
modifications: 2'-F pyrimidines
B2: C1q clone 23 (ssRNA)
RNA: GGGAGGACGAUGCGGCACUCACCUUCAUAUUGGCCGCCAUCCCCAGGGUUGAGCCCAGACACAGCAGACGACUCGCCCGA
modifications: 2'-NH2 pyrimidines

Legend:
Complement C5 [1] = molecular target: T1, Complement C5 (Homo sapiens, UniProt P01031;P01031 P01031:19-673,P01031:678-1676); test: inhibition; inhibition of C5a release, zymosan-treated human serum; conditions: tags: Quidel
Procedure: Nucleic Acid Ligand-C5 interaction that inhibits cleavage of C5 would prevent formation of the C5b and MAC assembly. […] For this experiment, dilutions of clone C6 were incubated with whole human serum in GVB⁺⁺ (veronal-buffered saline containing calcium, magnesium and 1% gelatin) plus addition of zymosan for 30 minutes at 37° C. The samples were then quenched with EDTA-buffer and spun, and supernatants were assayed for C5a by radioimrnmunoassay (RIA) (Wagner and Hugli (1984) Anal. Biochem. 136:75).

Complement C5 [2] = molecular target: T1, Complement C5; test: filter; MgPBS 37C; conditions: tags: Quidel
Procedure: (§1) Individual cloned DNA was T7 transcribed with α-[³²P]-ATP and the full length [³²P]-2′-NH₂-RNA or 2′-F-RNA was gel-purified (as above). RNA was suspended at approximately 5,000 cpm per 30 μL sample (<10 pM), and aliquots were incubated with various concentrations of C1q, C3 or C5 in MgPBS for 10 minutes at 37° C. Samples were then filtered through nitrocellulose, the filters washed with buffer and dried under an infrared lamp, and counted with addition of scintillation fluid (Ecoscint A, National Diagnostics, Atlanta, Ga.). A background sample of RNA alone was run in parallel. […] Filters were washed and counted.
Sequences were grouped according to homology and function.

Complement C1q = Complement C1q (UniProt P02745;P02746;P02747 P02745:23-245,P02746:28-253,P02747:29-245); test: filter; MgPBS 37C; text states range 0.29-3.9 nM for best ligands; conditions: tags: Quidel; chain copies: 6
Chain of Complement C1q (P02745 23-245, chain 1 of 3): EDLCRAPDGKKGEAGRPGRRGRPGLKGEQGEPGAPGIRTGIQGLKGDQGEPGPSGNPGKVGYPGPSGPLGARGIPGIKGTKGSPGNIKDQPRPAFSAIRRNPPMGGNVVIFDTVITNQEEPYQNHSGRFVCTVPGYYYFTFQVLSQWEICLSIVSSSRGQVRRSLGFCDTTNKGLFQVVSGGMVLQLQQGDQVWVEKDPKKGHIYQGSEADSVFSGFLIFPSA
Chain of Complement C1q (P02746 28-253, chain 2 of 3): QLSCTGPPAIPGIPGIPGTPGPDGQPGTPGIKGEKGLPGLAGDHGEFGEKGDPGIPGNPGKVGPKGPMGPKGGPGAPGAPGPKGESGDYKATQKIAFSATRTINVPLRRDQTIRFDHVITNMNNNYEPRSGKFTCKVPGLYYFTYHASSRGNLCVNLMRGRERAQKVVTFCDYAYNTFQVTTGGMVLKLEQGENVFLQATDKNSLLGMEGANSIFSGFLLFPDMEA
Chain of Complement C1q (P02747 29-245, chain 3 of 3): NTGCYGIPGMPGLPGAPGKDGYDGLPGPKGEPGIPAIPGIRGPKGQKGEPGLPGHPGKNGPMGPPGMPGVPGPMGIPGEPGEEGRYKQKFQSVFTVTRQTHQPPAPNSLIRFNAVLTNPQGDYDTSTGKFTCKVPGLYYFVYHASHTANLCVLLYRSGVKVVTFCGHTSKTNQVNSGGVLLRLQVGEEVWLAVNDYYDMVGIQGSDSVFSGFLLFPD
Procedure: as §1

Binder	Ki (Complement C5 [1])	Kd (Complement C5 [2])	Kd (Complement C1q)
B1	~100 nM	30 nM	
B2			23 nM
